The values below come from doi:10.1101/2021.04.04.438383 (bioRxiv, 2021).

This data set concerns the molecule itself. The experiment in a line: dynamic light scattering.

Where a chain is given by its changes, count along the chain named. Numbers in names are those of the source.

B1: recombinant Arc S67D, GST tag cleaved (natural protein)
chain: MELDHMTTGGLHAYPAPRGGPAAKPNVILQIGKCRAEMLEHVRRTHRHLLTEVSKQVERELKGLHRDVGKLENNLDGYVPTGDSQRWKKSIKACLCRCQETIANLERWVKREMHVWREVFYRLERWADRLESMGGKYPVGSEPARHTVSVGVGGPEPYCQEADGYDYTVSPYAITPPPAAGELPEQESVEAQQYQSWGPGEDGQPSPGVDTQIFEDPREFLSHLEEYLRQVGGSEEYWLSQIQNHMNGPAKKWWEFKQGSVKNWVEFKKEFLQYSEGTLSREAIQRELELPQKQGEPLDQFLWRKRDLYQTLYVDAEEEEIIQYVVGTLQPKLKRFLRHPLPKTLEQLIQRGMEVQDGLEQAAEPSGTPLPTEDETEALTPALTSESVASDRTQPE
For B1, the binding result is “binds”.

B2: recombinant Arc T278D, GST tag cleaved (natural protein)
chain: B1 chain with D67S, T278D
For B2, the binding result is on record as “binds”.
